Measured values: the supplement of paper PMC9112550, “Optimization of the antimicrobial peptide Bac7 by deep mutational scanning” (BMC Biology, 2022)

Tested on: Escherichia coli TOP10
Test: shrunken log2 fold change of peptide-encoding DNA abundance (4.5 h post-induction vs induction); higher = less antimicrobial activity (less host growth inhibition)
Details: time post-induction: 4.5 h; library: site-saturation at positions 5, 18, 19, 20
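Note: peptides expressed intracellularly from a pBAD plasmid library in pooled LB shake-flask culture, induced with 0.3% L-arabinose, DNA abundance read by NGS, three biological replicates, DESeq2 with apeglm shrinkage.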

Sequence	shrunken log2 fold change
RRIRMRPPRLPRPRPRPQMAPRP	0.349
RRIRTRPPRLPRPRPRPLHFPRP	-0.189
RRIRWRPPRLPRPRPRPFCIPRP	-0.293
RRIRLRPPRLPRPRPRPVWYPRP	-0.277
RRIRYRPPRLPRPRPRPLKHPRP	-1.82
RRIRGRPPRLPRPRPRPQWEPRP	0.0931
RRIRHRPPRLPRPRPRPFILPRP	-0.675
RRIRPRPPRLPRPRPRPSIEPRP	-0.0734
RRIRYRPPRLPRPRPRPTKHPRP	-0.896
RRIRHRPPRLPRPRPRPVAGPRP	0.26
RRIRGRPPRLPRPRPRPEFKPRP	0.741
RRIRVRPPRLPRPRPRPTFPPRP	0.0553
RRIRGRPPRLPRPRPRPCMAPRP	0.703
RRIRRRPPRLPRPRPRPYWQPRP	-0.0961
RRIRLRPPRLPRPRPRPMEPPRP	0.101
RRIRKRPPRLPRPRPRPTIYPRP	-0.0381
RRIRWRPPRLPRPRPRPGANPRP	0.0566
RRIRWRPPRLPRPRPRPCGKPRP	0.0489
RRIRWRPPRLPRPRPRPEWWPRP	-0.0316
RRIRQRPPRLPRPRPRPLTWPRP	-0.21
RRIRWRPPRLPRPRPRPFISPRP	-0.174
RRIRPRPPRLPRPRPRPVYYPRP	-0.348
RRIRCRPPRLPRPRPRPADGPRP	-0.129
RRIRFRPPRLPRPRPRPMKDPRP	-0.47
RRIRLRPPRLPRPRPRPKPIPRP	0.111

Sequence	shrunken log2 fold change
RRIRGRPPRLPRPRPRPDGFPRP	0.171
RRIRHRPPRLPRPRPRPQGWPRP	0.0705
RRIRQRPPRLPRPRPRPDMAPRP	0.0464
RRIRDRPPRLPRPRPRPWPRPRP	0.211
RRIRSRPPRLPRPRPRPVWPPRP	0.434
RRIRCRPPRLPRPRPRPIYWPRP	-0.815
RRIRVRPPRLPRPRPRPLPRPRP	0.642
RRIRIRPPRLPRPRPRPEESPRP	0.124
RRIRTRPPRLPRPRPRPIGKPRP	0.0128
RRIRWRPPRLPRPRPRPYNRPRP	-1.09
RRIRNRPPRLPRPRPRPMPDPRP	0.259
RRIRPRPPRLPRPRPRPISRPRP	0.121
RRIRFRPPRLPRPRPRPDGWPRP	0.13
RRIRVRPPRLPRPRPRPEEAPRP	0.26
RRIRTRPPRLPRPRPRPQHGPRP	-0.187
RRIRKRPPRLPRPRPRPPMFPRP	0.269
RRIRGRPPRLPRPRPRPAAYPRP	0.929
RRIRRRPPRLPRPRPRPPGGPRP	0.348
RRIRRRPPRLPRPRPRPCECPRP	0.076
RRIRPRPPRLPRPRPRPMREPRP	1.07
RRIRSRPPRLPRPRPRPCSEPRP	-0.228
RRIRNRPPRLPRPRPRPDHMPRP	-0.00141
RRIRCRPPRLPRPRPRPGWPPRP	0.63
RRIRERPPRLPRPRPRPIIHPRP	-0.413
RRIRVRPPRLPRPRPRPYIDPRP	-0.372

Sequence	shrunken log2 fold change
RRIRDRPPRLPRPRPRPPFFPRP	0.174
RRIRERPPRLPRPRPRPVPQPRP	-0.195
RRIRPRPPRLPRPRPRPMIEPRP	-0.0882
RRIRKRPPRLPRPRPRPIIEPRP	-0.0922
RRIRVRPPRLPRPRPRPPEPPRP	0.382
RRIRSRPPRLPRPRPRPFQMPRP	0.00561
RRIRIRPPRLPRPRPRPTMVPRP	-0.719
RRIRVRPPRLPRPRPRPFCYPRP	-0.133
RRIRPRPPRLPRPRPRPGGMPRP	0.189
RRIRHRPPRLPRPRPRPHLVPRP	-0.18
RRIRQRPPRLPRPRPRPAQWPRP	0.166
RRIRDRPPRLPRPRPRPHRAPRP	-0.0299
RRIRNRPPRLPRPRPRPCKKPRP	-0.0371
RRIRCRPPRLPRPRPRPHLLPRP	-0.375
RRIRHRPPRLPRPRPRPGTLPRP	-0.259
RRIRSRPPRLPRPRPRPQSFPRP	-0.0939
RRIRARPPRLPRPRPRPRRTPRP	0.577
RRIRTRPPRLPRPRPRPKYEPRP	-0.144
RRIRPRPPRLPRPRPRPSINPRP	-0.756
RRIRLRPPRLPRPRPRPLMGPRP	-0.0491
RRIRQRPPRLPRPRPRPGYIPRP	-0.625
RRIRSRPPRLPRPRPRPKMCPRP	-0.015
RRIRHRPPRLPRPRPRPWRNPRP	0.00611
RRIRWRPPRLPRPRPRPYQHPRP	-0.692
RRIRTRPPRLPRPRPRPQEEPRP	-0.0236

Sequence	shrunken log2 fold change
RRIRWRPPRLPRPRPRPPLRPRP	0.418
RRIRGRPPRLPRPRPRPMFPPRP	0.193
RRIRCRPPRLPRPRPRPCMDPRP	-0.09
RRIRWRPPRLPRPRPRPAIMPRP	-0.211
RRIRLRPPRLPRPRPRPMNWPRP	0.134
RRIRWRPPRLPRPRPRPSRRPRP	0.215
RRIRMRPPRLPRPRPRPFQMPRP	-0.323
RRIRHRPPRLPRPRPRPMYEPRP	-0.0116
RRIRMRPPRLPRPRPRPAESPRP	0.419
RRIRSRPPRLPRPRPRPIWSPRP	0.0119
RRIRLRPPRLPRPRPRPCLDPRP	-0.0475
RRIRRRPPRLPRPRPRPADYPRP	-0.0547
RRIRVRPPRLPRPRPRPMKGPRP	-0.01
RRIRYRPPRLPRPRPRPFIVPRP	-0.173
RRIRGRPPRLPRPRPRPEWRPRP	1.15
RRIRWRPPRLPRPRPRPTLKPRP	0.0453
RRIRPRPPRLPRPRPRPAQQPRP	0.263
RRIRSRPPRLPRPRPRPKCCPRP	-0.0585
RRIRSRPPRLPRPRPRPLPAPRP	0.494
RRIRMRPPRLPRPRPRPHEHPRP	0.301
RRIRFRPPRLPRPRPRPYARPRP	0.0368
RRIRMRPPRLPRPRPRPTCRPRP	0.32
RRIRERPPRLPRPRPRPAVVPRP	-0.171
RRIRFRPPRLPRPRPRPPQLPRP	0.274
RRIRWRPPRLPRPRPRPGQWPRP	0.032

Sequence	shrunken log2 fold change
RRIRERPPRLPRPRPRPWRSPRP	0.196
RRIRHRPPRLPRPRPRPMKMPRP	0.043
RRIRCRPPRLPRPRPRPTIQPRP	-0.508
RRIRIRPPRLPRPRPRPDPYPRP	-0.555
RRIRFRPPRLPRPRPRPSNYPRP	-0.396
RRIRRRPPRLPRPRPRPTPPPRP	0.845
RRIRTRPPRLPRPRPRPHVQPRP	-0.156
RRIRFRPPRLPRPRPRPEPWPRP	0.172
RRIRFRPPRLPRPRPRPEQSPRP	0.0672
RRIRRRPPRLPRPRPRPLWSPRP	0.136
RRIRYRPPRLPRPRPRPAVMPRP	-0.231
RRIRTRPPRLPRPRPRPWSPPRP	-0.37
RRIRRRPPRLPRPRPRPVGGPRP	0.984
RRIRARPPRLPRPRPRPHSWPRP	0.475
RRIRFRPPRLPRPRPRPRHCPRP	-0.239
RRIRYRPPRLPRPRPRPLLLPRP	-0.586
RRIRNRPPRLPRPRPRPPWFPRP	0.349
RRIRYRPPRLPRPRPRPQTPPRP	-0.203
RRIRARPPRLPRPRPRPPVGPRP	1.18
RRIRDRPPRLPRPRPRPRDPPRP	2.7
RRIRERPPRLPRPRPRPMNGPRP	-0.0134
RRIRQRPPRLPRPRPRPAARPRP	0.246
RRIRNRPPRLPRPRPRPLAHPRP	0.212
RRIRTRPPRLPRPRPRPHANPRP	-0.254
RRIRNRPPRLPRPRPRPYQGPRP	-0.00804
